Two substances from article PMC12404239 can be followed below.

Assay [1] has as its target SARS-CoV-2 spike glycoprotein (S) (SARS-CoV-2) (UniProt P0DTC2). Put plainly: […], running buffer TBS, […].
The target in assay [2] is influenza B haemagglutinin (HA) B/Maryland/15/16 (influenza B virus (B/Maryland/15/16)). The assay can be described thus: […], running buffer TBS, […].

Turning to “SARS-CoV-2 spike glycoprotein (S) (from UniProt P0DTC2 14-1273) (natural protein)”, the stoichiometry N in assay [1] amounted to 3.

Substance “influenza B haemagglutinin (HA) B/Maryland/15/16 (natural protein)” gave a stoichiometry N in assay [2] of 3.

One may read the stoichiometry N as the number of molecules, sites or subunits per partner or assembly.
